Experimental data from article PMC3925968, “Single molecule FRET reveals pore size and opening mechanism of a mechano-sensitive ion channel” (eLife, 2014).

B1: E. coli MscL (EcoMscL) M42C (natural protein, UniProt P0A742 1-136, looked up)
chain: MSIIKEFREFAMRGNVVDLAVGVIIGAAFGKIVSSLVADIICPPLGLLIGGIDFKQFAVTLRDAQGDIPAVVMHYGVFIQNVFDFLIVAFAIFMAIKLINKLNRKKEEPAAAPAPTKEEVLLTEIRDLLKEQNNRS
modifications: Alexa Fluor 488 and/or Alexa Fluor 568 maleimide on the introduced cysteine (stochastic labelling)
notes: Mechanosensitive channel of large conductance MscL, Escherichia coli, single cysteine mutant on TM1; The MscL gene was cloned into pQE-32 as a BamHI-SalI fragment; 5% labeled channels were mixed with 95% unlabeled ones for reconstitution; also called mechanosensitive channel of large conductance; source: E. coli M15, purified from DDM solubilized membranes (TALON, FPLC Superdex 200), …
B2: E. coli MscL (EcoMscL) Y75C (natural protein, UniProt P0A742 1-136, looked up)
chain: MSIIKEFREFAMRGNVVDLAVGVIIGAAFGKIVSSLVADIIMPPLGLLIGGIDFKQFAVTLRDAQGDIPAVVMHCGVFIQNVFDFLIVAFAIFMAIKLINKLNRKKEEPAAAPAPTKEEVLLTEIRDLLKEQNNRS
modifications: Alexa Fluor 488 and/or Alexa Fluor 568 maleimide on the introduced cysteine (stochastic labelling)
notes: Mechanosensitive channel of large conductance MscL, Escherichia coli, single cysteine mutant on TM2; Same construct as m1 apart from the cysteine position; Pentamer on cited work; some hexamers not excluded; source: E. coli M15, purified from DDM solubilized membranes (TALON, FPLC Superdex 200), reconstituted into liposomes; not shown: His6, N-terminal, kept
B3: E. coli MscL (EcoMscL) A27C (natural protein, UniProt P0A742 1-136, looked up)
chain: MSIIKEFREFAMRGNVVDLAVGVIIGCAFGKIVSSLVADIIMPPLGLLIGGIDFKQFAVTLRDAQGDIPAVVMHYGVFIQNVFDFLIVAFAIFMAIKLINKLNRKKEEPAAAPAPTKEEVLLTEIRDLLKEQNNRS
modifications: Alexa Fluor 488 and/or Alexa Fluor 568 maleimide on the introduced cysteine (stochastic labelling)
notes: Mechanosensitive channel of large conductance MscL, Escherichia coli, single cysteine mutant on TM1; Same construct as m1 apart from the cysteine position; Pentamer on cited work; some hexamers not excluded; source: E. coli M15, purified from DDM solubilized membranes (TALON, FPLC Superdex 200), reconstituted into liposomes; not shown: His6, N-terminal, kept
B4: E. coli MscL (EcoMscL) V82C (natural protein, UniProt P0A742 1-136, looked up)
chain: MSIIKEFREFAMRGNVVDLAVGVIIGAAFGKIVSSLVADIIMPPLGLLIGGIDFKQFAVTLRDAQGDIPAVVMHYGVFIQNCFDFLIVAFAIFMAIKLINKLNRKKEEPAAAPAPTKEEVLLTEIRDLLKEQNNRS
modifications: Alexa Fluor 488 and/or Alexa Fluor 568 maleimide on the introduced cysteine (stochastic labelling)
notes: as for B2
B5: E. coli MscL (EcoMscL) Q80C (natural protein, UniProt P0A742 1-136, looked up)
chain: MSIIKEFREFAMRGNVVDLAVGVIIGAAFGKIVSSLVADIIMPPLGLLIGGIDFKQFAVTLRDAQGDIPAVVMHYGVFICNVFDFLIVAFAIFMAIKLINKLNRKKEEPAAAPAPTKEEVLLTEIRDLLKEQNNRS
modifications: Alexa Fluor 488 and/or Alexa Fluor 568 maleimide on the introduced cysteine (stochastic labelling)
notes: as for B2
B6: E. coli MscL (EcoMscL) I25C (natural protein, UniProt P0A742 1-136, looked up)
chain: MSIIKEFREFAMRGNVVDLAVGVICGAAFGKIVSSLVADIIMPPLGLLIGGIDFKQFAVTLRDAQGDIPAVVMHYGVFIQNVFDFLIVAFAIFMAIKLINKLNRKKEEPAAAPAPTKEEVLLTEIRDLLKEQNNRS
modifications: Alexa Fluor 488 and/or Alexa Fluor 568 maleimide on the introduced cysteine (stochastic labelling)
notes: Mechanosensitive channel of large conductance MscL, Escherichia coli, single cysteine mutant on TM1 near the pore constriction; Same construct as m1 apart from the cysteine position; Pentamer on cited work; some hexamers not excluded; source: E. coli M15, purified from DDM solubilized membranes (TALON, FPLC Superdex 200), reconstituted into liposomes; not shown: His6, N-terminal, kept

Molecular target: the molecule itself
Assay: FRET or BRET; single molecule FRET (TIRF) between one AF488 donor and one AF568 acceptor on the single cysteines of two subunits of one channel; channels in ~50 nm POPC liposomes with 2% BPE, immobilised on a coverslip by biotin-neutravidin; without and with 25% LPC

Binding result, binds:
B1
B2
B3
B4
B5
B6
